Source: US6451762B1 (Novo Nordisk A/S, priority 1997, dated 2002)

Columns and labels:
[1] = Gel filtration on Sephacryl S-300 HR (aggregate formation, method 1); assay type: physicochemical; parameters: key to KAV: KAV=(VE-V0)/(VT-V0); fraction of available elution volume; details: Sephacryl S-300 HR, pH 7.4 eluent; Zinc free
[2] = biological target: Albumin (Homo sapiens, UniProt P02768); assay: Albumin binding constant; details: normalised using Lys^B29(N^ε tetradecanoyl) des(B30) human insulin as reference
[3] = Gel filtration method 2 on Superose 6HR (HPLC, 37° C.); assay type: physicochemical; details: 140 mM NaCl, 10 mM tris, pH 7.4
Experimental: An alternative method to measure the capability of insulin derivatives of forming soluble high molecular weight aggregates was developed, suitable for HPLC equipment. The column dimensions, injection volume, and flow rate correspond to the first method, whereas the temperature is increased to 37° C. and the phosphate buffer is changed to trishydroxymethylaminomethan hydrochloride and additional sodium chloride. The aggregated state of insulin is defined to elute before the gel filtration standard aldolase like in the first method.

[4] = Disappearance after subcutaneous injection in pigs; details: pigs
From the text: The gel filtration experiment using the conditions prescribed in this section is the direct physico-chemical method to reveal the potential aggregate formation property of an insulin derivative. Disappearance after subcutaneous injection in pigs reflects the combination of the albumin binding and polymer formation properties of the insulin derivative, besides a variety of biological factors.

## Human insulin [reference compound]
[1]
  KAV: 0.72
[2]
  Albumin binding Kass: 0 (mol/l)^−1
[3]; 2 Zn2+/6 ins
  KAV (Superose 6HR) 2Zn^2+/6 ins: 0.64
[3]; 3 Zn2+/6 ins
  KAV (Superose 6HR) 3Zn^2+/6 ins: 0.64
[4]; subcutaneous injection, normalised using Lys^B29(N^ε tetradecanoyl) des(B30) human insulin as reference
  Disappearance T50%: (2) h
[4]; subcutaneous, normalised to Lys^B29(N^ε tetradecanoyl-) des(B30) human insulin (T50% = 14.3 h)
  Disappearance in pigs, T50%: 2 h
